Where two headings read alike, the source gives them in different places. Where no end group is shown, it is not given here. Ahx = NCCCCCC(=O)O
Assays:
His-tagged G3BP1 NTF2 [1] = molecular target: T1, His-tagged G3BP1 NTF2 (human, UniProt Q13283 1-139); assay: peptide or protein array
His-tagged G3BP1 NTF2 [2] = molecular target: T1, His-tagged G3BP1 NTF2; assay: peptide or protein array; remark: listed apart in the source
[3] = molecular target: G3BP1 NTF2 (1-139) F15/33W (human, UniProt Q13283 1-139, F15W | F33W); assay: fluorescence polarisation
[4] = molecular target: G3BP1 NTF2 (1-139) F15/124W (human, UniProt Q13283 1-139, F15W | F124W); assay: fluorescence polarisation
G3BP1 NTF2 (1-139) S38G = G3BP1 NTF2 (1-139) S38G (human, UniProt Q13283 1-139, S38G); assay: fluorescence polarisation
G3BP1 NTF2 (1-139) S38A = G3BP1 NTF2 (1-139) S38A (human, UniProt Q13283 1-139, S38A); assay: fluorescence polarisation
[5] = molecular target: G3BP1 NTF2 (1-139) F33/124W (human, UniProt Q13283 1-139, F33W | F124W); assay: fluorescence polarisation
G3BP1 NTF2 (1-139) S38T = G3BP1 NTF2 (1-139) S38T (human, UniProt Q13283 1-139, S38T); assay: fluorescence polarisation
[6] = molecular target: G3BP1 NTF2 domain (residues 1-139) WT (human, UniProt Q13283 1-139); assay: fluorescence polarisation
[7] = molecular target: G3BP1 NTF2 (1-139) TripleW (F15W/F33W/F124W) (human, UniProt Q13283 1-139, F15W | F33W | F124W); assay: fluorescence polarisation
G3BP1 NTF2 (1-139) F15W = G3BP1 NTF2 (1-139) F15W (human, UniProt Q13283 1-139, F15W); assay: fluorescence polarisation
G3BP1 NTF2 (1-139) F15W, sequence (Q13283 1-139 F15W): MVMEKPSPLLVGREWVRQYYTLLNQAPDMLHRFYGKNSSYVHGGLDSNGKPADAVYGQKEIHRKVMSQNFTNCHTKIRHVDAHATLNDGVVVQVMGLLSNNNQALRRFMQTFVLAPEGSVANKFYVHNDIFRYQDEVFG

T1 sequence (Q13283 1-139): as the sequence (Q13283 1-139 F15W) above, with W15F counted along it
G3BP1 NTF2 (1-139) S38A, sequence (Q13283 1-139 S38A): as the sequence (Q13283 1-139 F15W) above, with W15F, S38A counted along it
G3BP1 NTF2 (1-139) F33/124W, sequence (Q13283 1-139 F33W/F124W): as the sequence (Q13283 1-139 F15W) above, with W15F, F33W, F124W counted along it
G3BP1 NTF2 (1-139) F15/124W, sequence (Q13283 1-139 F15W/F124W): as the sequence (Q13283 1-139 F15W) above, with F124W counted along it
G3BP1 NTF2 (1-139) S38T, sequence (Q13283 1-139 S38T): as the sequence (Q13283 1-139 F15W) above, with W15F, S38T counted along it
G3BP1 NTF2 (1-139) F15/33W, sequence (Q13283 1-139 F15W/F33W): as the sequence (Q13283 1-139 F15W) above, with F33W counted along it
G3BP1 NTF2 (1-139) TripleW (F15W/F33W/F124W), sequence (Q13283 1-139 F15W/F33W/F124W): as the sequence (Q13283 1-139 F15W) above, with F33W, F124W counted along it
G3BP1 NTF2 domain (residues 1-139) WT, sequence (Q13283 1-139): as the sequence (Q13283 1-139 F15W) above, with W15F counted along it
G3BP1 NTF2 (1-139) S38G, sequence (Q13283 1-139 S38G): as the sequence (Q13283 1-139 F15W) above, with W15F, S38G counted along it

binding result (His-tagged G3BP1 NTF2 [1])	Binder	also measured
binds	QGPYDFIQDSMLDFENQTLD [Caprin1 array peptide N371D]	–
binds	QGPYEFIQDSMLDFENQTLD [Caprin1 array peptide N371E]	–
–	HSPQYIFGDVSPDEFNQFFV [USP10 array peptide F13V]	binding result (His-tagged G3BP1 NTF2 [2]): binds
binds	QGPYNFIQESMLDFENQTLD [Caprin1 array peptide D375E]	–
binds	QGPYYFIQDSMLDFENQTLD [Caprin1 array peptide N371Y]	–
–	HSPQYIFGDFSPDEFNQFFV [native USP10 array peptide HSPQYIFGDFSPDEFNQFFV]	binding result (His-tagged G3BP1 NTF2 [2]): binds
binds	QGPYCFIQDSMLDFENQTLD [Caprin1 array peptide N371C]	–
binds	QGPYNFIQDSFLDFENQTLD [Caprin1 array peptide M377F]	–
–	HSPQYIFADFSPDEFNQFFV [USP10 array peptide G11A]	binding result (His-tagged G3BP1 NTF2 [2]): binds
binds	QGPYNFLQDSMLDFENQTLD [Caprin1 array peptide I373L]	–
binds	QGPYWFIQDSMLDFENQTLD [Caprin1 array peptide N371W]	–
binds	QGPYNFFQDSMLDFENQTLD [Caprin1 array peptide I373F]	–
–	HSPQYIFGDISPDEFNQFFV [USP10 array peptide F13I]	binding result (His-tagged G3BP1 NTF2 [2]): binds
binds	QGPYFFIQDSMLDFENQTLD [Caprin1 array peptide N371F]	–
binds	QGPYSFIQDSMLDFENQTLD [Caprin1 array peptide N371S]	–
–	HSPQYIVGDFSPDEFNQFFV [USP10 array peptide F10V]	binding result (His-tagged G3BP1 NTF2 [2]): binds
binds	QGPYIFIQDSMLDFENQTLD [Caprin1 array peptide N371I]	–
binds	QGPYVFIQDSMLDFENQTLD [Caprin1 array peptide N371V]	–
–	HSPQYIYGDFSPDEFNQFFV [USP10 array peptide F10Y]	binding result (His-tagged G3BP1 NTF2 [2]): binds

binding result (His-tagged G3BP1 NTF2 [1])	Binder	also measured
–	HSPQYIFGDLSPDEFNQFFV [USP10 array peptide F13L]	binding result (His-tagged G3BP1 NTF2 [2]): binds
binds	QGPYNFIQDSYLDFENQTLD [Caprin1 array peptide M377Y]	–
–	HSPQYILGDFSPDEFNQFFV [USP10 array peptide F10L]	binding result (His-tagged G3BP1 NTF2 [2]): binds
binds	QGPYMFIQDSMLDFENQTLD [Caprin1 array peptide N371M]	–
binds	QGPFNFIQDSMLDFENQTLD [Caprin1 array peptide Y370F]	–
binds	QGPYRFIQDSMLDFENQTLD [Caprin1 array peptide N371R]	–
–	HSPQYIIGDFSPDEFNQFFV [USP10 array peptide F10I]	binding result (His-tagged G3BP1 NTF2 [2]): binds
binds	QGPYLFIQDSMLDFENQTLD [Caprin1 array peptide N371L]	–
–	HSPQYIFGDWSPDEFNQFFV [USP10 array peptide F13W]	binding result (His-tagged G3BP1 NTF2 [2]): binds
–	HSPQYIFGDYSPDEFNQFFV [USP10 array peptide F13Y]	binding result (His-tagged G3BP1 NTF2 [2]): binds
binds	QGPYKFIQDSMLDFENQTLD [Caprin1 array peptide N371K]	–
binds	QGPYHFIQDSMLDFENQTLD [Caprin1 array peptide N371H]	–
binds	QGPYQFIQDSMLDFENQTLD [Caprin1 array peptide N371Q]	–
binds	QGPYNFIQDSMIDFENQTLD [Caprin1 array peptide L378I]	–
–	{fluorescein-Ahx}-YNFIQDSMLDFE [Caprin1-derived dodecamer reporter peptide F*-YNFIQDSMLDFE]	binding result [3]: binds; binding result [4]: binds; binding result (G3BP1 NTF2 (1-139) S38G): binds; binding result (G3BP1 NTF2 (1-139) S38A): binds; binding result [5]: binds; binding result (G3BP1 NTF2 (1-139) S38T): binds; Kd [6]: 1.7 µM; binding result [7]: binds; Kd (G3BP1 NTF2 (1-139) F15W): 9.3 µM
binds	QGPYTFIQDSMLDFENQTLD [Caprin1 array peptide N371T]	–
binds	QGPYNFIQDCMLDFENQTLD [Caprin1 array peptide S376C]	–
binds	QGPYNFIQDSMLDFENQTLD [native Caprin1 array peptide QGPYNFIQDSMLDFENQTLD]	–
